Laboratory results reported in publication PMC5731819 (2017).

Target: E. coli DNA sliding clamp β (Escherichia coli (strain K12), UniProt P0A988, maleimide-Atto647N on a single cysteine residue (position not given))
Test: CoSMoS single-molecule TIRF co-localization (dwell time 14.2 s on clamp-DNA); β clamp loaded by the γ clamp loader (ATP) onto end-blocked primer-template DNA; Pol IIIcore present as competitor

Chain of E. coli DNA sliding clamp β (P0A988 whole entry): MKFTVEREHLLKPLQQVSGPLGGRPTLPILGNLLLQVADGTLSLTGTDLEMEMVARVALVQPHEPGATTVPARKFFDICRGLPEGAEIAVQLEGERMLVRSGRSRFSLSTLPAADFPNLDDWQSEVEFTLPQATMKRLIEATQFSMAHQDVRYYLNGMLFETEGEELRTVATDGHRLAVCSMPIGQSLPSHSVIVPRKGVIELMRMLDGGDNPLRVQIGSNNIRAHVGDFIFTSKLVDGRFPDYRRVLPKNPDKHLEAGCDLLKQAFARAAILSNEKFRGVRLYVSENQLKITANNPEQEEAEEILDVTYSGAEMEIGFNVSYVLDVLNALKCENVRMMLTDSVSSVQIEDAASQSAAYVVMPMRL

B1: E. coli translesion DNA polymerase Pol IV, wild type (protein)
chain: MRKIIHVDMDCFFAAVEMRDNPALRDIPIAIGGSRERRGVISTANYPARKFGVRSAMPTGMALKLCPHLTLLPGRFDAYKEASNHIREIFSRYTSRIEPLSLDEAYLDVTDSVHCHGSATLIAQEIRQTIFNELQLTASAGVAPVKFLAKIASDMNKPNGQFVITPAEVPAFLQTLPLAKIPGVGKVSAAKLEAMGLRTCGDVQKCDLVMLLKRFGKFGRILWERSQGIDERDVNSERLRKSVGVERTMAEDIHHWSECEAIIERLYPELERRLAKVKPDLLIARQGVKLKFDDFQQTTQEHVWPRLNKADLIATARKTWDERRGGRGVRLVGLHVTLLDPQMERQLVLGL
modifications: Atto 565 (CoA-linked) conjugated by Sfp to the N-terminal Ybbr tag
B1: binds.
